# Experimental data reported in US20140087995A1 (published 2014).
# Numbered stars: 1 amine (or outer) side, 2 acyl side, 3 side chain; on linkers, the order of the positions; unused ones are H or OH. Bridge positions count the residues as written; N and C are the ends. Side chains are listed from the residue outwards. Ends that are not written are not given here. * marks the point of attachment. C20 diacid = O=C(O)CCCCCCCCCCCCCCCCCCC(=O)*; γGlu = O=C(O)[C@H](CCC(=O)[*:2])N[*:1]
# T1: rat calcitonin receptor (rat, UniProt P32214 25-516)
# T1 construct: whole, on cells; Used as membranes prepared from the transfected cells (Assay VIII); also called rCTR; rat calcitonin (a) receptor
# T1 sequence (looked up): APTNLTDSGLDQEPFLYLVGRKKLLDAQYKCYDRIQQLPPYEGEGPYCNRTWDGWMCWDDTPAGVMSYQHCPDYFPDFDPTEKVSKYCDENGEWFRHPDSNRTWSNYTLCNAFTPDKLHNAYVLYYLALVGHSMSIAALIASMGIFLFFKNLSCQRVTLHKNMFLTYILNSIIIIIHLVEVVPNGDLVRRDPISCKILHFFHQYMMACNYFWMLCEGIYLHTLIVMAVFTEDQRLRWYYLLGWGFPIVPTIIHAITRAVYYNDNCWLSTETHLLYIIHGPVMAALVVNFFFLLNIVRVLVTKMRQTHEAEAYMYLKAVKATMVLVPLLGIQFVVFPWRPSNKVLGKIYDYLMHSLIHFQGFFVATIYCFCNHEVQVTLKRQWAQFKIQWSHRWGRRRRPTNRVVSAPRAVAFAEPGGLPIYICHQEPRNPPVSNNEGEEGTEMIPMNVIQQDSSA
# T2: human calcitonin receptor (human, UniProt P30988 25-474)
# T2 construct: whole, on cells; Used as membranes prepared from the transfected cells (Assay VII); also called hCTR; hCT
# T2 sequence (looked up): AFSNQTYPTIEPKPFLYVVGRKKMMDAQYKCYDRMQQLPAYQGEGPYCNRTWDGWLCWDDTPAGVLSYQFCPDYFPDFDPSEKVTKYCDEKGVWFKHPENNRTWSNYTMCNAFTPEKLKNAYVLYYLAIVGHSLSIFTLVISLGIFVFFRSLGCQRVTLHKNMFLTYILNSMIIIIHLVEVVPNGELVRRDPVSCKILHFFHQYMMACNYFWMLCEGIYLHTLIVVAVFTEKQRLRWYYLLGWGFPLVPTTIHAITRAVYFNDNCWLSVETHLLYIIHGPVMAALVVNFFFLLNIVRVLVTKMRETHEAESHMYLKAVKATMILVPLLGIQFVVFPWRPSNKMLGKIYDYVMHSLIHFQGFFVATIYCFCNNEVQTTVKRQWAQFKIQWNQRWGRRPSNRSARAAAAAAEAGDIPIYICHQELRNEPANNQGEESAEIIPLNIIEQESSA
# T3: rat amylin receptor (rat calcitonin receptor + rat RAMP 3) (rat, UniProt P32214 25-516; Q9JJ73 23-147)
# T3 construct: whole, on cells; Used as membranes prepared from the transfected cells (Assay VI); also called rAmylin-R; rat amylin 3(a) receptor
# T3 sequence (looked up) 1: T1 sequence (looked up)
# T3 sequence (looked up) 2: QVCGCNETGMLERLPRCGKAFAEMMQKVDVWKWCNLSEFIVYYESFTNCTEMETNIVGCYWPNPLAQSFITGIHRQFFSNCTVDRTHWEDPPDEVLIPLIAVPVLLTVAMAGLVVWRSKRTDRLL
# B1: N^ε1-[(4S)-4-carboxy-4-(19-carboxynonadecanoylamino)butanoyl]-[Glu14,Arg17,Pro21,Pro27,His35]-h-amylin (peptide)
# peptide: K([γGlu-C20 diacid])CNTATCATQRLAEFLRHSSPNFGAIPSSTNVGSHTY-NH2
# modifications: disulfide 2-7; N-terminus assumed
# SMILES: CC[C@H](C)[C@H](NC(=O)[C@H](C)NC(=O)CNC(=O)[C@H](Cc1ccccc1)NC(=O)[C@H](CC(N)=O)NC(=O)[C@@H]1CCCN1C(=O)[C@H](CO)NC(=O)[C@H](CO)NC(=O)[C@H](Cc1c[nH]cn1)NC(=O)[C@H](CCCNC(=N)N)NC(=O)[C@H](CC(C)C)NC(=O)[C@H](Cc1ccccc1)NC(=O)[C@H](CCC(=O)O)NC(=O)[C@H](C)NC(=O)[C@H](CC(C)C)NC(=O)[C@H](CCCNC(=N)N)NC(=O)[C@H](CCC(N)=O)NC(=O)[C@@H](NC(=O)[C@H](C)NC(=O)[C@@H]1CSSC[C@H](NC(=O)[C@@H](N)CCCCNC(=O)CC[C@H](NC(=O)CCCCCCCCCCCCCCCCCCC(=O)O)C(=O)O)C(=O)N[C@@H](CC(N)=O)C(=O)N[C@@H]([C@@H](C)O)C(=O)N[C@@H](C)C(=O)N[C@@H]([C@@H](C)O)C(=O)N1)[C@@H](C)O)C(=O)N1CCC[C@H]1C(=O)N[C@@H](CO)C(=O)N[C@@H](CO)C(=O)N[C@H](C(=O)N[C@@H](CC(N)=O)C(=O)N[C@H](C(=O)NCC(=O)N[C@@H](CO)C(=O)N[C@@H](Cc1c[nH]cn1)C(=O)N[C@H](C(=O)N[C@@H](Cc1ccc(O)cc1)C(N)=O)[C@@H](C)O)C(C)C)[C@@H](C)O
# notes: not restated for each compound
# B2: N^ε1-[(4S)-4-carboxy-4-(19-carboxynonadecanoylamino)butanoyl]-[Glu14,Arg17,Pro21,Pro27,Pro34,His35]-h-amylin (peptide)
# peptide: K([γGlu-C20 diacid])CNTATCATQRLAEFLRHSSPNFGAIPSSTNVGPHTY-NH2
# modifications: disulfide 2-7
# notes: as for B1
# B3: N^ε1-[(4S)-4-carboxy-4-[[(4S)-4-carboxy-4-(19-carboxynonadecanoylamino)butanoyl]amino]butanoyl]-[Arg17,Pro21,Pro27,Pro31,Pro34,Arg35]-h-amylin (peptide)
# peptide: K([γGlu-γGlu-C20 diacid])CNTATCATQRLANFLRHSSPNFGAIPSSTPVGPRTY-NH2
# modifications: disulfide 2-7; N-terminus assumed
# SMILES: CC[C@H](C)[C@H](NC(=O)[C@H](C)NC(=O)CNC(=O)[C@H](Cc1ccccc1)NC(=O)[C@H](CC(N)=O)NC(=O)[C@@H]1CCCN1C(=O)[C@H](CO)NC(=O)[C@H](CO)NC(=O)[C@H](Cc1c[nH]cn1)NC(=O)[C@H](CCCNC(=N)N)NC(=O)[C@H](CC(C)C)NC(=O)[C@H](Cc1ccccc1)NC(=O)[C@H](CC(N)=O)NC(=O)[C@H](C)NC(=O)[C@H](CC(C)C)NC(=O)[C@H](CCCNC(=N)N)NC(=O)[C@H](CCC(N)=O)NC(=O)[C@@H](NC(=O)[C@H](C)NC(=O)[C@@H]1CSSC[C@H](NC(=O)[C@@H](N)CCCCNC(=O)CC[C@H](NC(=O)CC[C@H](NC(=O)CCCCCCCCCCCCCCCCCCC(=O)O)C(=O)O)C(=O)O)C(=O)N[C@@H](CC(N)=O)C(=O)N[C@@H]([C@@H](C)O)C(=O)N[C@@H](C)C(=O)N[C@@H]([C@@H](C)O)C(=O)N1)[C@@H](C)O)C(=O)N1CCC[C@H]1C(=O)N[C@@H](CO)C(=O)N[C@@H](CO)C(=O)N[C@H](C(=O)N1CCC[C@H]1C(=O)N[C@H](C(=O)NCC(=O)N1CCC[C@H]1C(=O)N[C@@H](CCCNC(=N)N)C(=O)N[C@H](C(=O)N[C@@H](Cc1ccc(O)cc1)C(N)=O)[C@@H](C)O)C(C)C)[C@@H](C)O
# notes: as for B1
# B4: N^ε1-[(4S)-4-carboxy-4-[[(4S)-4-carboxy-4-(19-carboxynonadecanoylamino)butanoyl]amino]butanoyl]-[Glu14,Arg17,Pro21,Pro27,Pro34,His35]-h-amylin (peptide)
# peptide: K([γGlu-γGlu-C20 diacid])CNTATCATQRLAEFLRHSSPNFGAIPSSTNVGPHTY-NH2
# modifications: disulfide 2-7 (inferred)
# notes: as for B1
# B5: N^ε1-[(4S)-4-carboxy-4-[[(4S)-4-carboxy-4-(19-carboxynonadecanoylamino)butanoyl]amino]butanoyl]-[Asp14,Arg17,Pro21,Pro27,Pro34,Glu35]-h-amylin (peptide)
# peptide: K([γGlu-γGlu-C20 diacid])CNTATCATQRLADFLRHSSPNFGAIPSSTNVGPETY-NH2
# modifications: disulfide 2-7
# notes: as for B1
# B6: N^ε1-[(4S)-4-carboxy-4-[[(4S)-4-carboxy-4-(19-carboxynonadecanoylamino)butanoyl]amino]butanoyl]-[Glu14,Arg17,Pro21,Pro31,Pro34,Glu35]-h-amylin (peptide)
# peptide: K([γGlu-γGlu-C20 diacid])CNTATCATQRLAEFLRHSSPNFGAILSSTPVGPETY-NH2
# modifications: disulfide 2-7 (inferred)
# notes: as for B1
# B7: N^ε1-[(4S)-4-carboxy-4-[[(4S)-4-carboxy-4-(19-carboxynonadecanoylamino)butanoyl]amino]butanoyl]-[Glu14,Arg17,Pro21,Pro27,His34,Glu35]-h-amylin (peptide)
# peptide: K([γGlu-γGlu-C20 diacid])CNTATCATQRLAEFLRHSSPNFGAIPSSTNVGHETY-NH2
# modifications: disulfide 2-7; N-terminus assumed
# SMILES: CC[C@H](C)[C@H](NC(=O)[C@H](C)NC(=O)CNC(=O)[C@H](Cc1ccccc1)NC(=O)[C@H](CC(N)=O)NC(=O)[C@@H]1CCCN1C(=O)[C@H](CO)NC(=O)[C@H](CO)NC(=O)[C@H](Cc1c[nH]cn1)NC(=O)[C@H](CCCNC(=N)N)NC(=O)[C@H](CC(C)C)NC(=O)[C@H](Cc1ccccc1)NC(=O)[C@H](CCC(=O)O)NC(=O)[C@H](C)NC(=O)[C@H](CC(C)C)NC(=O)[C@H](CCCNC(=N)N)NC(=O)[C@H](CCC(N)=O)NC(=O)[C@@H](NC(=O)[C@H](C)NC(=O)[C@@H]1CSSC[C@H](NC(=O)[C@@H](N)CCCCNC(=O)CC[C@H](NC(=O)CC[C@H](NC(=O)CCCCCCCCCCCCCCCCCCC(=O)O)C(=O)O)C(=O)O)C(=O)N[C@@H](CC(N)=O)C(=O)N[C@@H]([C@@H](C)O)C(=O)N[C@@H](C)C(=O)N[C@@H]([C@@H](C)O)C(=O)N1)[C@@H](C)O)C(=O)N1CCC[C@H]1C(=O)N[C@@H](CO)C(=O)N[C@@H](CO)C(=O)N[C@H](C(=O)N[C@@H](CC(N)=O)C(=O)N[C@H](C(=O)NCC(=O)N[C@@H](Cc1c[nH]cn1)C(=O)N[C@@H](CCC(=O)O)C(=O)N[C@H](C(=O)N[C@@H](Cc1ccc(O)cc1)C(N)=O)[C@@H](C)O)C(C)C)[C@@H](C)O
# notes: as for B1
# B8: N^ε1-[(4S)-4-carboxy-4-(19-carboxynonadecanoylamino)butanoyl]-[His14,Arg17,Pro21,Pro27,Pro31,Pro34]-h-amylin (peptide)
# peptide: K([γGlu-C20 diacid])CNTATCATQRLAHFLRHSSPNFGAIPSSTPVGPNTY-NH2
# modifications: disulfide 2-7; N-terminus assumed
# SMILES: CC[C@H](C)[C@H](NC(=O)[C@H](C)NC(=O)CNC(=O)[C@H](Cc1ccccc1)NC(=O)[C@H](CC(N)=O)NC(=O)[C@@H]1CCCN1C(=O)[C@H](CO)NC(=O)[C@H](CO)NC(=O)[C@H](Cc1c[nH]cn1)NC(=O)[C@H](CCCNC(=N)N)NC(=O)[C@H](CC(C)C)NC(=O)[C@H](Cc1ccccc1)NC(=O)[C@H](Cc1c[nH]cn1)NC(=O)[C@H](C)NC(=O)[C@H](CC(C)C)NC(=O)[C@H](CCCNC(=N)N)NC(=O)[C@H](CCC(N)=O)NC(=O)[C@@H](NC(=O)[C@H](C)NC(=O)[C@@H]1CSSC[C@H](NC(=O)[C@@H](N)CCCCNC(=O)CC[C@H](NC(=O)CCCCCCCCCCCCCCCCCCC(=O)O)C(=O)O)C(=O)N[C@@H](CC(N)=O)C(=O)N[C@@H]([C@@H](C)O)C(=O)N[C@@H](C)C(=O)N[C@@H]([C@@H](C)O)C(=O)N1)[C@@H](C)O)C(=O)N1CCC[C@H]1C(=O)N[C@@H](CO)C(=O)N[C@@H](CO)C(=O)N[C@H](C(=O)N1CCC[C@H]1C(=O)N[C@H](C(=O)NCC(=O)N1CCC[C@H]1C(=O)N[C@@H](CC(N)=O)C(=O)N[C@H](C(=O)N[C@@H](Cc1ccc(O)cc1)C(N)=O)[C@@H](C)O)C(C)C)[C@@H](C)O
# notes: as for B1
# B9: N^ε1-[(4S)-4-carboxy-4-[[(4S)-4-carboxy-4-(19-carboxynonadecanoylamino)butanoyl]amino]butanoyl]-[Asp14,Arg17,Pro21,Pro27,Pro34,Arg35]-h-amylin (peptide)
# peptide: K([γGlu-γGlu-C20 diacid])CNTATCATQRLADFLRHSSPNFGAIPSSTNVGPRTY-NH2
# modifications: disulfide 2-7
# notes: not restated for each compound; also called compound 130
# Biological target: T1, rat calcitonin receptor
# Assay: ratio of IC50 on rat calcitonin receptor (Assay VIII) to IC50 on rat amylin receptor (Assay VI)
row,Binder,Ratio rCT/rAmylin binding
1,B1,22.7
2,B2,52.2
3,B3,137
4,B4,73
5,B5,98.5
6,B6,74.7
7,B7,159
8,B8,72.4
9,B9,240

# Biological target: T2, human calcitonin receptor
# Assay: ratio of IC50 on human calcitonin receptor (Assay VII) to IC50 on human amylin receptor (Assay V)
# Summary of the method: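 Membranes (35 ng/μL final) + SPA beads, 50 mM Hepes pH 7.4 buffer with 1 mM CaCl2, 5 mM MgCl₂, 0.1% OA, 0.02% Tween20; 120 min, 25° C, shaking; centrifuged, counted; IC₅₀ by one-site binding competition.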
row,Binder,Ratio hCT/hAmylin binding
1,B1,26.4
2,B2,21.2
3,B3,48.6
4,B4,27.3
5,B5,49.8
6,B6,22.6
7,B7,29.1
8,B8,24.8
9,B9,280

# Biological target: T1, rat calcitonin receptor
# Assay: SPA competition binding, displacement of 125I-calcitonin from membranes of BHK tk'ts 13 cells transfected with rat calcitonin receptor (Assay VIII)
row,Binder,IC50 [nM]
1,B1,26.3
2,B2,5.43
3,B3,52.4
4,B4,21
5,B5,31.9
6,B6,33.5
7,B7,498
8,B8,9.05
9,B9,223

# Biological target: T3, rat amylin receptor (rat calcitonin …)
# Assay: SPA competition binding, displacement of 125I-rat amylin from membranes of BHK tk'ts 13 cells transfected with rat calcitonin receptor + rat RAMP 3 (Assay VI)
row,Binder,IC50 [nM]
1,B1,1.16
2,B2,0.104
3,B3,0.381
4,B4,0.288
5,B5,0.324
6,B6,0.449
7,B7,3.14
8,B8,0.125
9,B9,0.93
